What is called Kd is the concentration at which binding is half-saturated. The term koff denotes the rate constant with which the complex falls apart.

Assay [1] deals with recombinant human EDA protein (extra-domain A of fibronectin), His-tagged (human) (UniProt P02751). Kind of assay: flow cytometry, CD4+ control PSMA CAR-T cells incubated with soluble human His-EDA (50 µg/ml per legend paragraph 32), anti-His-APC; light grey histogram, lower number of the panel humanEDA, CD4 row [cont.) C].
The target in assay [2] is recombinant mouse EDA protein (extra-domain A of fibronectin), His-tagged (mouse) (UniProt P11276). Kind of assay: flow cytometry, CD4+ control PSMA CAR-T cells incubated with soluble mouse His-EDA (50 µg/ml per legend paragraph 32), anti-His-APC; light grey histogram, lower number of the panel mouseEDA, CD4 row [cont.) C]. For orientation: A flow cytometer gives signals particle by particle.

The target in assay [3] is recombinant human EDA protein (extra-domain A of fibronectin), His-tagged (human) (UniProt P02751). In words: flow cytometry, CD8+ control PSMA CAR-T cells incubated with soluble human His-EDA (50 µg/ml per legend paragraph 32), anti-His-APC; light grey histogram, lower number of the panel humanEDA, CD8 row [cont.) C].
Assay [4] concerns the target recombinant mouse EDA protein (extra-domain A of fibronectin), His-tagged (mouse) (UniProt P11276). Kind of assay: flow cytometry, CD8+ control PSMA CAR-T cells incubated with soluble mouse His-EDA (50 µg/ml per legend paragraph 32), anti-His-APC; light grey histogram, lower number of the panel mouseEDA, CD8 row [cont.) C].
Assay [5] addresses T1, recombinant mouse EDA protein (extra-domain A of fibronectin), His-tagged (mouse, UniProt P11276 1721-1810).
T1 construct: Recombinant protein carrying a His tag; also called murine EDA; EDA (m)
In words: IFN-gamma release (ELISA) by CAR-T cells on EDA-coated plates, 48 h (functional read-out, not direct binding). As for the experimental part:
Also CAR-T cells were plated for 24 h in the presence of irradiated PM299L-EDA and PM299L-Thy1.1 cells. The number of IFN-γ producing cells was measured by ELISPOT as described by Lozano et al. (Lozano T et al., 2019). CAR-T cell proliferation and IFN-γ production were measured by 3H-thymidine incorporation (0.5 μCi per well) and ELISA, respectively, as described by Casares et al. (Casares N et al., 2010). In some cases, CAR-T cell proliferation was measured by Cell trace violet (CTV) dilution assay; Lymphocytes were incubated with the dye (5 μM) for 15 minutes at 37° C. and washed with RPMI 10% FBS. 8×10⁵ labelled lymphocytes were plated and co-incubated with PM299L-EDA^high and PM299L-Thy1.1 tumor cells at a ratio of 1:1 for 72 hours at 37° C. Subsequently, the proliferating population (measured by CTV dilution) was analyzed within GFP+ lymphocytes. The proliferation index was calculated as the ratio between proliferating cells in the presence of tumor cells expressing EDA (PM299L-EDA^high) and the number of proliferating cells in the presence of tumor cells not expressing EDA (PM299L. Thy1.1) at the end of the co-culture.
EDA CAR-T cells were generated by retroviral transduction of CD4⁺ or CD8⁺ T cells with the corresponding retrovirus. Five days after infection, T cells were analyzed by flow cytometry. […] IFN-g released to the culture supernatant was measured by ELISA.
In general terms: In an ELISA, binding on a coated surface is turned into a signal by an enzyme label.

The target in assay [6] is T2, recombinant human EDA protein (extra-domain A of fibronectin), His-tagged (human, UniProt P02751 1722-1811).
T2 construct: Recombinant protein carrying a His tag; also called hEDA; EDA (h)
In words: Bio-Layer Interferometry (Octet N1), scFv F8 on AR2G biosensors, soluble EDA. As for the experimental part:
(§1) The resulting plasmid was transfected into BL21(DE3) cells for the expression of the recombinant scFv which was purified by affinity chromatography using protein A Sepharose (Amersham Biosciences) according to the manufacturer's instructions. Purified antibody fragments were analyzed by Coomassie and Western blot using anti-His antibodies. Recognition of EDA protein by the purified scFv F8 fragment was tested by ELISA using plates coated with recombinant EDA protein produced as described previously (Lasarte J J et al., 2007). The equilibrium dissociation constant (KD) of scFv F8 to soluble human and mouse EDAs was calculated by Bio-Layer Interferometry (BLI) using an Octet N1 (Sartorius) (FIG. 13). The scFv F8 was coated to the AR2G Biosensors (Fortébio) following manufacturer's instructions.
(§2) To evaluate the functionality of the CAR construct, EDA CAR-T cells were cultured in EDA coated plates for 48 h. Both CD4+ and CD8+ EDA CAR-T, but not PSMA CAR-T cells produced high amounts of IFN-γ (FIG. 3D) and proliferated in response to EDA (FIG. 3E). […] This discrepancy could be due to the methodological differences between assays. Indeed, in the binding experiments EDA proteins are added in solution and bind to the CAR-T cells directly. […]
In general terms: In BLI a coated tip is dipped into the sample, and binding shifts an interference pattern.

In assay [7] the target is T1, recombinant mouse EDA protein …. The assay is described as above. The method, then:
as §1, §2

For assay [8], the target named is T2, recombinant human EDA protein …. In words: Bio-Layer Interferometry (Octet N1), scFv F8 on AR2G biosensors, soluble hEDA at 1, 2, 4 and 8 uM; table column Kd (1/s) [cont.) E].
Text: as §1, with “A DNA sequence coding for the scFv recombinant antibody fragment F8 (Rybak J N et al., 2007) was cloned in pET20b plasmid (Novagen), which enables expression of fusion proteins carrying six histidine residues at the carboxyl terminus. The resulting” for “The resulting”

Assay [9] deals with T1, recombinant mouse EDA protein …. Kind of assay: Bio-Layer Interferometry (Octet N1), scFv F8 on AR2G biosensors, soluble mEDA at 1, 2, 4 and 8 uM; table column Kd (1/s) [cont.) E].
Text: as §1, with “A DNA sequence coding for the scFv recombinant antibody fragment F8 (Rybak J N et al., 2007) was cloned in pET20b plasmid (Novagen), which enables expression of fusion proteins carrying six histidine residues at the carboxyl terminus. The resulting” for “The resulting”

T1 sequence (P11276 1721-1810 limits assumed): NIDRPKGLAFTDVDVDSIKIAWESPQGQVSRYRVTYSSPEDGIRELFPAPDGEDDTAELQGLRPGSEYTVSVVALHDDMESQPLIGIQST
Chain of recombinant mouse EDA protein (extra-domain A of fibronectin), His-tagged (mouse) (P11276 1721-1810 limits assumed): as above
Chain of recombinant human EDA protein (extra-domain A of fibronectin), His-tagged (human) (P02751 1722-1811 limits assumed): as the sequence (P11276 1721-1810 limits assumed) above, with R44H, D54E, I87T counted along it
T2 sequence (P02751 1722-1811 limits assumed): as the sequence (P11276 1721-1810 limits assumed) above, with R44H, D54E, I87T counted along it

With “PSMA CAR (anti-human PSMA scFv from mouse hybridoma J591 in the murine 4-1BB-CD3zeta cassette) on mouse T cells”, the MFI (mean fluorescence intensity) came to 269 in [1], 49 in assay [2], 203 in assay [3] and 46 in assay [4].

B1: chimeric EDA CAR with anti-EDA C27 scFv (VH/VL of antibody 27A12.70) in the murine 4-1BB-CD3zeta cassette, on mouse T cells (other)
chain: DVQLQESGPDLVKPSQSLSLTCTVTGYSITSGYSWHWIRQFPGNKLEWMGYIHYSGIANYNPSLKSRISITRDTSKNHFFLQLNSVTTEDTATYYCATEKTGFFDYWGQGTTLTVSSGGGGSGGGGSGGGGSGGGGSDVVMTQTPLSLPVSLGDQASISCRSSQSLVHSNGNTYLHWYLQKPGQSPKLLIYKVSNRFSGVPDRFSGSGSGTDFTLKISRVEAEDLGVYFCSQSAHVPPTFGGGTKLEIKR
notes: also called C27 EDA CAR-T; clone C27; not shown: limits on that entry
B1: the binding result in [5] is on record as “no binding (tested: 5 µg/ml coated (FIG. 14 legend))”.

B2: anti-EDA F8 scFv (purified recombinant antibody fragment) (scFv)
scFv: EVQLLESGGGLVQPGGSLRLSCAASGFTFSVMKMSWVRQAPGKGLEWVSAISGSGGSTYYADSVKGRFTISRDNSKNTLYLQMNSLRAEDTAVYYCAKSTHLYLFDYWGQGTLVTVSSGGGGSGGGGSGGGGSGGGGSEIVLTQSPGTLSLSPGERATLSCRASQSVSNAFLAWYQQKPGQAPRLLIYGASSRATGIPDRFSGSGSGTDFTLTISRLEPEDFAVYYCQQMRGRPPTFGQGTKVEIKHHHHHH
notes: Expressed in E. coli BL21(DE3) from pET20b and purified on protein A Sepharose; also called scFv F8; scFv (F8)
Regarding B2, the equilibrium dissociation constant (Kd) was determined as 0.0776 µM in assay [6] and 0.0995 µM in assay [7]. Further, the values for the koff in assay [8] and in assay [9] were 0.000532 s⁻¹ and 0.000342 s⁻¹, respectively.
